Data as given in US6500929B1.

How the values were obtained:
[1] = biological target: C1 (a first component of complement) of human serum (human) (UniProt P09871)
[2] = biological target: C1 (a first component of complement) of human serum (human) (UniProt P09871); remark: listed apart in the source

FLAG-C1-INH-GPI (C1-INH-GPI with a FLAG epitope tag added to the C terminal of the signal peptide)
complement-mediated lysis of swine vascular endothelial cells (SEC) by 20% and 40% human serum [1]: 20% | complement-mediated lysis of CHO cells (antibody against CHO cells, then 40% human serum) [2]: 20%
